According to the Immune Epitope Database (IEDB):

Molecular target: HLA-A*02:01
Assay: IEDB peptide-MHC binding, purified MHC/competitive/radioactivity; filed as Kd, often an IC50 or EC50 that approximates it; ≥ and ≤ were set here for values at or beyond the usual limits of such assays
Conditions: source organism: Trypanosoma cruzi

AACIVGCENV and AIVFDHYDV cannot be ordered by Kd: at least 28.2 µM for the first, at least 43.4 µM for the second.

AIVTCGAETL and ALKNNGKVV cannot be ordered by Kd: at least 28.2 µM for the first, at least 43.4 µM for the second.

Going from CLLTTSGVSA to FANSKFTLVA, the Kd rises from 10.4 µM to at least 43.4 µM. The first binds more tightly here.

First: FTDNKSCVSL
Second: GLTFKGPGA
The Kd of the first is lower: 14.4 µM for the first, at least 43.4 µM for the second. The first binds more tightly here.

GVQGGFVSA and IVQENNGAV cannot be ordered by Kd: at least 43.4 µM for the first, at least 28.2 µM for the second.

KALETDVPA and LAAVLVVMA cannot be ordered by Kd: at least 43.4 µM for the first, at least 22.8 µM for the second.

Compared with LLGLWGTAA, LLTTSGVSA is higher in Kd: 6.26 µM for the first, at least 28.2 µM for the second.

LLVGYNDSA and LLVGYNDSAA cannot be ordered by Kd: at least 28.2 µM for the first, at least 28.2 µM for the second.

Going from LTFKGPGAWA to LVQAFHSFRA, the Kd falls from at least 43.4 µM to 6.92 µM.

First: LVYVNGVVV
Second: MACLVPAAT
The Kd of the first is lower: 9.07 µM for the first, at least 26.8 µM for the second.

Compared with MALIGDSTV, MTEQTDEAV is higher in Kd: 17.5 µM for the first, at least 43.4 µM for the second. The first binds more tightly here.

Compared with MTYTGGVMT, NVLLYNRLL is lower in Kd: at least 28.2 µM for the first, 6.03 µM for the second. The second binds more tightly here.

QMSCTDAACI and QVHSSLSVV cannot be ordered by Kd: at least 28.2 µM for the first, at least 43.4 µM for the second.

First: RIILNGSLL
Second: SLSVVRPMT
The Kd of the first is higher: at least 43.4 µM for the first, 8.56 µM for the second. The second binds more tightly here.

STHCSGPSV and STSRVPYDI cannot be ordered by Kd: at least 28.2 µM for the first, at least 43.4 µM for the second.

SVPLNQCNWL and VAVNGPVAV cannot be ordered by Kd: at least 28.2 µM for the first, at least 28.2 µM for the second.

First: VLLLVVVMM
Second: VLVVMACLV
The Kd of the first is higher: at least 27.9 µM for the first, 7.35 µM for the second.

VTLPTGQCL and WADEYLCVNA cannot be ordered by Kd: at least 28.2 µM for the first, at least 43.4 µM for the second.

WAFSAIGNV and WIVQENNGA are within 1.5-fold of each other in Kd: 16.7 µM for the first, 12.8 µM for the second.

Compared with WMTYTGGVMT, YATVEVPSL is lower in Kd: at least 28.2 µM for the first, 5.5 µM for the second. The second binds more tightly here.

Molecular target: HLA-A*02:01
Assay: IEDB peptide-MHC binding, purified MHC/competitive/radioactivity; ≥ and ≤ were set here for values at or beyond the usual limits of such assays
Conditions: source organism: Trypanosoma cruzi

AANPHATFGV and AASTLLYATV are within 1.5-fold of each other in IC50: 2950 nM for the first, 2980 nM for the second.

First: ALSLAAVLV
Second: ALSLAAVLVV
The IC50 of the first is 2.9-fold lower: 112 nM for the first, 324 nM for the second. The first is the more potent here.

First: AMALIGDSTV
Second: AVLVVMACL
The IC50 of the first is 28-fold lower: 148 nM for the first, 4150 nM for the second. The first is the more potent here.

Going from CLVPAATASL to FLAGHPLTNL, the IC50 falls from 2540 nM to 14 nM (180-fold). The second is the more potent here.

Compared with FLARLHAAA, FLGGGGAGI is 75-fold higher in IC50: 48 nM for the first, 3580 nM for the second.

Going from FTLVAPVSI to FTSAVLLLV, the IC50 falls from 363 nM to 10 nM (36-fold).

First: FTSAVLLLVV
Second: GLLLLGLWGT
The IC50 of the first is 15-fold higher: 918 nM for the first, 62 nM for the second.

First: GLMNNAFEWI
Second: IILNGSLLT
The IC50 of the first is 25-fold lower: 175 nM for the first, 4330 nM for the second. The first is the more potent here.

KTWADEYLCV and KVVSLVILA are within 1.5-fold of each other in IC50: 444 nM for the first, 409 nM for the second.

First: LLLGLWGTA
Second: LLLGLWGTAA
The IC50 of the first is 3.9-fold higher: 944 nM for the first, 241 nM for the second. The second is the more potent here.

LLLLGLWGTA and LLTTSGVSAI are within 1.5-fold of each other in IC50: 888 nM for the first, 1110 nM for the second.

Compared with LMNNAFEWI, LMNNAFEWIV is 7.1-fold lower in IC50: 395 nM for the first, 56 nM for the second. The second is the more potent here.

Going from LTNLSEQMLV to MMSCSSEAT, the IC50 falls from 3190 nM to 1170 nM (2.7-fold).

First: MTSCVSEQL
Second: QLDHGVLLV
The IC50 of the first is 1.9-fold lower: 348 nM for the first, 673 nM for the second.

Compared with QMDYSNGLFV, RALSLAAVL is 64-fold higher in IC50: 61 nM for the first, 3880 nM for the second. The first is the more potent here.

Going from RLHLWLSDM to RLLSPTTIV, the IC50 falls from 4910 nM to 290 nM (17-fold). The second is the more potent here.

Compared with RVFGLLLLGL, RVFTSAVLL is 1.9-fold higher in IC50: 355 nM for the first, 661 nM for the second.

SIHVTVSNV and SLVYVNGVVV are within 1.5-fold of each other in IC50: 3610 nM for the first, 2880 nM for the second.

Compared with SMNATLVQA, SVFRENLFL is 4.5-fold lower in IC50: 267 nM for the first, 59 nM for the second. The second is the more potent here.

First: TLLYATVEV
Second: VMACLVPAA
The IC50 of the first is 6.8-fold higher: 68 nM for the first, 10 nM for the second.

Compared with VMMSCSSEA, VVMACLVPAA is 1.8-fold higher in IC50: 55 nM for the first, 98 nM for the second. The first is the more potent here.

WIIKNSWTA and WLSDCGEAL are within 1.5-fold of each other in IC50: 186 nM for the first, 228 nM for the second.

For YVNGVVVATV, the IC50 was 466 nM.
